Assay [1] deals with chick embryonic spinal motorneurons. The assay can be described thus: Survival of chick embryonic spinal motorneurons in culture. The assay is classed as cell-based. On the set-up: key to Survival: −: not significantly different from control (survival: 8.3 ± 3.8%, mean ± SD, n = 18); ±: about 15-20% (statistically significant from each blank control, p < 0.01); + +: about 35-55%; + ++: about 55-75%. The settings on record: for Survival: after 3 days in culture, one concentration per molecule, Table VI, CNTF rat, rec.; for survival effect on motoneurons: supramaximal concentrations, NT-3 produced by transfected Cos-cells. As for the experimental part:
Motorneuron columns were dissected under a stereomicroscope from the lumbar part of the spinal cord of chick embryos on the 6th day of embryonic development and stored in cold calcium and magnesium-free Hanks balanced salt solution supplemented with glucose (4 g/l) (HBSS). The tissues were washed with HBSS and treated with 0.03% trypsin in HBSS at 37° C. for 20 min with gentle shaking, rinsed with cold HBSS and triturated mildly in 3 steps of 8-passage agitation in 1 ml of cold 0.1% soybean trypsin inhibitor (Sigma) in HBSS through a fire-polished siliconized Pasteur pipette. Each supernatant cell suspension was filtered through 50 μm-Nylon mesh, pooled and layered onto 4 ml of cold 6.8% metrizamide (Fluka) in HBSS-25 mM HEPES (pH7.4) in a 12 ml-siliconized conical glass tube. The tube was centrifuged at 400 g for 15 min at 4° C. and the intermediate layer (0.5 ml) was collected into another siliconized tube containing 6.5 ml of cold culture medium (a mixture of glucose (4 g/l)-supplemented Leibovitz's L-15 medium (Gibco), 0.15 M sodium bicarbonate, heat-inactivated and filtered horse serum and penicillin G (10^5 units/ml) at the ratio of 75:15:10:0.1, freshly prepared and buffered with 5% CO2.) After centrifugation at 100×g for 7 min at 4° C., the supernatant was removed and the cells were gently resuspended in culture medium and plated in Greiner 4-well culture dishes (well diameter, 10 mm; C. A. Greiner und Sohne GmbH, Nurtingen, West Germany) at 1000-2000 cells/well. The dishes had been precoated with poly-DL-ornithine (Sigma, 0.5 mg in 0.15 M sodium borate buffer (pH 8.3) overnight at 4° C., rinsed twice with phosphate-buffered saline (PBS) and subsequently coated with laminin (Gibco; 10 μg/ml in the serum-depleted culture medium) and placed in a 5% CO2-incubator until cell plating (5-6 hrs). Cells were incubated at 37° C. in a humidified 5% CO2- and 95% air-incubator. Samples were added one hr after plating and the culture medium changed after 24 hrs and 72 hrs. The initial cell numbers were counted 3 hrs after plating.
In some experiments motor neurons were retrogradely labeled with a fluorescent dye in vivo before cell preparation (U. Dohrman et al., 1986, Dev. Biol. 118:209-221) to identify the motor neuron cell population. A small hole was made in the shell of eggs which had been incubated for 5 days. Small pieces of rhodamine isothiocyanate crystals (Sigma) were inserted at two or three places into each hind limb thigh and the egg hole was sealed with a cellophane tape. The eggs were incubated for another 24 hrs. Some of the operated embryos were then processed for frozen sections after formaldehyde fixation. […] The other embryos were used for cell preparation using the method described above (18.1.1). After 5 hrs in culture cells were rinsed with warm HBSS, fixed with 4% formaldehyde in PBS at room temperature for 20 min, rinsed with PBS and then mounted in glycerol-PBS (1:1) with glass coverslips. Of the total cells approximately 83% were labeled and identified as motorneurons (FIG. 42.) Most of these labeled motorneurons were large cells and the rest were intermediate-size cells. No small cells were labeled. On the other hand, in experiments in which cells were not labeled with a fluorescent dye about 70% of the total cells were large phase-bright cells with round cell somas, about 20% were intermediate-size neurons (most of them may be motorneurons) and about 10% were small immature neurons (they have neuron-like processes with growth cones but have phase-dark semi-flat cell somas). Non-neuronal cells were either not present or accounted for less than 2%. Taken together, one may conclude that at least 83% of the cells are motorneurons while the remainder consists of non-labeled motorneurons, a small number of unidentified intermediate-size neurons and about 10% immature small neurons. […]

Assay [2] relates to dorsal root ganglia and/or dissociated ciliary neurons. The assay can be described thus: Biological activity of modified and truncated CNTF proteins (rapid bacterial extracts). Type of assay: cell-based, chick. Particulars: soluble protein extracted from induced bacteria hosting each plasmid; compared with full length parental protein. As for the experimental part:
Samples for gel electrophoresis were prepared by resuspending cell pellets from 0.5 ml culture OD590=2 in 0.16 ml lysis buffer (100 mM TrisHCl, 10% glycerol, 4% sodium dodecyl sulfate, 1 mM dithiothreitol, 0.5 mg/ml bromophenol blue, pH 6.8) and boiling for 5 minutes.
(§1) Biological activity of recombinant CNTF was assayed on explants of chick embryo dorsal root ganglia (DRG) and dissociated cultures of ciliary ganglion (CG) neurons as described in Lindsay and Rohrer (1985, Devel. Biol 112:30-48). Briefly, DRG were dissected from chick embryos of 10 days incubation (E10) and 5-6 ganglia were explanted in 1 ml of a collagen gel matrix in 35 mm tissue culture dishes. After the gel had set, 1 ml of tissue culture growth medium F14 (Imperial Labs., U.K.) supplemented with 5% heat-inactivated horse serum (GIBCO) was added before adding human CNTF (1-20 l) to a final concentration of 100 pg to 100 ng/ml. CG were dissected from E8 chick embryos and incubated for 30 min in 0.25% trypsin (Worthington) in calcium- and magnesium-free phosphate buffered saline. The ganglia were then washed three times in F14 medium containing 5% horse serum before being dissociated to a single cell suspension by trituration through the bore of a Pasteur pipette. Enrichment for CG neurons was achieved by plating the cell suspension for 3.5 hr in a 60 mm dish, during which non-neuronal cells (fibroblasts and Schwann cells) attached firmly to the plastic while phase-bright neurons remained in suspension. The purified neurons were plated on polyornithine-laminin-coated 35 mm culture dishes at 8,000-10,000 neurons/dish. In explant cultures CNTF activity was determined by assessing the extent of fiber outgrowth in treated cultures compared to controls. Fiber outgrowth was scored on a scale of 0 to 5+, by comparing cultures to photographs of a dose-response of explanted DRG and NGF. In dissociated CG neuron cultures, CNTF activity was determined by counting at 48 hr the percentage of process-bearing neurons in control and CNTF-treated cultures. In all cases results were derived from triplicate cultures.
Biological activity was assayed on dorsal root ganglia and/or dissociated ciliary neurons was determined as described in section 12.1.6. Soluble protein was extracted from induced bacteria hosting each plasmid by the “rapid” protein extraction method described in section 12.1.3.

The subject of assay [3] is E8 chick ciliary ganglion neurons. The assay can be described thus: Survival of dissociated E8 chick ciliary ganglion neurons. The assay is classed as cell-based.
From the text: Ciliary neurotrophic factor activity may be evaluated using any CNTF-sensitive in vivo or in vitro system known in the art. For example, and not by way of limitation, in vitro systems have been developed which measure CNTF activity by quantitating 24-hour survival of embryonic (E8) chick ciliary ganglion (CG) neurons in monolayer cultures.
For example, ciliary ganglia may be collected from E8 chick embryos, dissociated (yielding approximately 20,000 cells per ganglion) and then diluted in HEBM medium containing 20 percent horse serum as described in Varon et al. (1979, Brain Res. 173:29-45). About fifty microliters of cell suspension containing neurons (2,000 cells) may then be seeded into microliter dishes and putative CNTF activity may be added. Culture plates may then be maintained at 37° C. in 5% CO2 for 24 hours, after which the cultures may be fixed by the addition of 200 μl 2 per cent glutaraldehyde in HEBM medium, and the number of surviving neurons may be determined visually by direct count under phase contrast microscopy.
Chick embryo ciliary ganglion cultures were created and maintained according to the method set forth in (Hughes et al., 1988, Nature 335 : 70-73).
as §1

B1: IFNc: IFNc (rat, rec.) (protein, UniProt P01581 23-156, looked up)
Interferon gamma: QGTLIESLESLKNYFNSSSMDAMEGKSLLLDIWRNWQKDGNTKILESQIISFYLRLFEVLKDNQAISNNISVIESHLITNFFSNSKAKKDAFMSIAKFEVNNPQIQHKAVNELIRVIHQLSPESSLRKRKRSRC
On to B1, for which, in assay [1], the Survival result was “−” and the “survival effect on motoneurons” value was “no discernable effect”.

B2: bNGF: bNGF (mouse) (protein, UniProt P01139 122-241, looked up)
Beta-nerve growth factor: SSTHPVFHMGEFSVCDSVSVWVGDKTTATDIKGKEVTVLAEVNINNSVFRQYFFETKCRASNPVESGCRGIDSKHWNSYCTTTHTFVKALTTDEKQAAWRFIRIDTACVCVLSRKATRRG
modifications: Beta-nerve growth factor
With B2, in assay [1], the Survival result was “−” and the “survival effect on motoneurons” value is “no discernable effect”.

B3: NT-3: neurotrophic molecule of the NGF-BDNF gene family, produced by transfected Cos-cells (protein, UniProt P20783 139-257, looked up)
Neurotrophin-3: YAEHKSHRGEYSVCDSESLWVTDKSSAIDIRGHQVTVLGEIKTGNSPVKQYFYETRCKEARPVKNGCRGIDDKHWNSQCKTSQTYVRALTSENNKLVGWRWIRIDTSCVCALSRKIGRT
Turning to B3, in assay [1], the Survival entry is “−” and the “survival effect on motoneurons” value is “did not appear to have a survival effect”.

B4: EGF: EGF (mouse) (protein, UniProt P01132 29-1217, looked up)
Pro-epidermal growth factor: WQTGNCQPGPLERSERSGTCAGPAPFLVFSQGKSISRIDPDGTNHQQLVVDAGISADMDIHYKKERLYWVDVERQVLLRVFLNGTGLEKVCNVERKVSGLAIDWIDDEVLWVDQQNGVITVTDMTGKNSRVLLSSLKHPSNIAVDPIERLMFWSSEVTGSLHRAHLKGVDVKTLLETGGISVLTLDVLDKRLFWVQDSGEGSHAYIHSCDYEGGSVRLIRHQARHSLSSMAFFGDRIFYSVLKSKAIWIANKHTGKDTVRINLHPSFVTPGKLMVVHPRAQPRTEDAAKDPDPELLKQRGRPCRFGLCERDPKSHSSACAEGYTLSRDRKYCEDVNECATQNHGCTLGCENTPGSYHCTCPTGFVLLPDGKQCHELVSCPGNVSKCSHGCVLTSDGPRCICPAGSVLGRDGKTCTGCSSPDNGGCSQICLPLRPGSWECDCFPGYDLQSDRKSCAASGPQPLLLFANSQDIRHMHFDGTDYKVLLSRQMGMVFALDYDPVESKIYFAQTALKWIERANMDGSQRERLITEGVDTLEGLALDWIGRRIYWTDSGKSVVGGSDLSGKHHRIIIQERISRPRGIAVHPRARRLFWTDVGMSPRIESASLQGSDRVLIASSNLLEPSGITIDYLTDTLYWCDTKRSVIEMANLDGSKRRRLIQNDVGHPFSLAVFEDHLWVSDWAIPSVIRVNKRTGQNRVRLQGSMLKPSSLVVVHPLAKPGADPCLYRNGGCEHICQESLGTARCLCREGFVKAWDGKMCLPQDYPILSGENADLSKEVTSLSNSTQAEVPDDDGTESSTLVAEIMVSGMNYEDDCGPGGCGSHARCVSDGETAECQCLKGFARDGNLCSDIDECVLARSDCPSTSSRCINTEGGYVCRCSEGYEGDGISCFDIDECQRGAHNCGENAACTNTEGGYNCTCAGRPSSPGLSCPDSTAPSLLGEDGHHLDRNSYPGCPSSYDGYCLNGGVCMHIESLDSYTCNCVIGYSGDRCQTRDLRWWELRHAGYGQKHDIMVVAVCMVALVLLLVLGMWGTYYYRTRKQLSNPPKNPCDEPSGSVSSSGPNSSSGAAVASCPQPWFVVLEKHQDPKNGSLPADGTNGAVVDAGLSPSLQLGSVHLTSWRQKPHIDGMGTGQSCWIPPSSDRGPQEIEGNSHLPSYRPVGPEKLHSLQSANGSCHERAPDLPRQTEPVQ
modifications: Pro-epidermal growth factor
In the case of B4, in assay [1], the Survival result is “−” and the “survival effect on motoneurons” value was “no discernable effect”.

B5: pRPN108: hCNTF with alanine in place of cysteine at amino acid 17, encoded in plasmid pRPN108 (protein, UniProt P26441 1-200, looked up, variant C17A)
Ciliary neurotrophic factor: MAFTEHSPLTPHRRDLASRSIWLARKIRSDLTALTESYVKHQGLNKNINLDSADGMPVASTDQWSELTEAERLQENLQAYRTFHVLLARLLEDQQVHFTPTEGDFHQAIHTLLLQVAAFAYQIEELMILLEYKIPRNEADGMPINVGDGGLFEKKLWGLKVLQELSQWTVRSIHDLRFISSHQTGIPARGSHYIANNKKM
With B5, the biological activity result in assay [2] is “as active as the full length protein”.

B6: IL-6: IL-6 (mouse, rec.) (protein, UniProt P08505 25-211, looked up)
Interleukin-6: FPTSQVRRGDFTEDTTPNRPVYTTSQVGGLITHVLWEIVEMRKELCNGNSDCMNNDDALAENNLKLPEIQRNDGCYQTGYNQEICLLKISSGLLEYHSYLEYMKNNLKDNKKDKARVLQRDTETLIHIFNQEVKDLHKIVLPTPISNALLTDKLESQKEWLRTKTIQFILKSLEEFLKVTLRSTRQT
Regarding B6, in assay [1], the Survival entry is “−” and the “survival effect on motoneurons” value is reported as “no discernable effect”.

B7: CNTF purified from rat sciatic nerve: native CNTF protein purified from rat sciatic nerve (protein, UniProt P20294 1-200, looked up)
Ciliary neurotrophic factor: MAFAEQTPLTLHRRDLCSRSIWLARKIRSDLTALMESYVKHQGLNKNINLDSVDGVPVASTDRWSEMTEAERLQENLQAYRTFQGMLTKLLEDQRVHFTPTEGDFHQAIHTLMLQVSAFAYQLEELMVLLEQKIPENEADGMPATVGDGGLFEKKLWGLKVLQELSQWTVRSIHDLRVISSHQMGISALESHYGAKDKQM
A word on the EC50: it is the concentration at which the effect is half-maximal. As to B7, the “lowest concentration at which activity was detectable” value in assay [3] (dissociated, neuron-enriched E8 chick ciliary ganglion cultures) came to 5 pg/mL. Besides, the EC50 in assay [3] (neuronal survival, E8 chick ciliary ganglion cultures) was 0.08 ng/mL.

For the origin of these results see patent US6602687B1, “DNA encoding human ciliary neurotrophic factor and method for producing the protein encoded thereby” (Regeneron Pharmaceuticals, Inc., priority 1989, dated 2003).
